# Earlier results as cited in publication PMC5874834.
# Molecular target: VEGF165 VEGF165 (Homo sapiens) (UniProt P15692)
# Sequence of UniProt P15692 (P15692 207-321, chain 1 of 2): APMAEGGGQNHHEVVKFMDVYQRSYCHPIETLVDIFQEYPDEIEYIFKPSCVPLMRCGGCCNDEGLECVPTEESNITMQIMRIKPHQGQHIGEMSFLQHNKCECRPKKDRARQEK
# Sequence of UniProt P15692 (P15692 346-395, chain 2 of 2): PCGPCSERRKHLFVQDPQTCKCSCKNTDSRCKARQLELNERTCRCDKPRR
substance,measurement,value
Brolucizumab scFv,Kd,1.6 pM
